The target in this test is GFP-tagged Tubulin (fusion construct of Tubulin and GFP). The experiment in a line: FRET or BRET. (Bioluminescence resonance energy transfer reports proximity on the nanometre scale.)

B1: DsRed-tagged Ccdc181 (FACS-FRET construct) (natural protein)
chain: MDEDKDIDSKESGEYEDDFEKDLEWLINDKEKSNGSTIEMACKKEDDLDQVLKENETETELGQQLSDPDNSPKDEALPRRNDFISVPSIQPLDPISDSDSENSFQDSKPENQKDLEDEEDEEVRRYIMEKIIEANKLLQTQEPVNDKRERKLKFKDKLVDLEVPPLEDSDTCKALLENETNMSGKLSQLCISGDLEQESVLVSVTDGSCEENDRKILVERDGKFELMNLQDIESQGFLPPISSANSVEHESSQLPLRAPNPSVGGIKKEESEAKGHVLPISPAGEPLAQVPQLLPNPKNRPSSAANPDVTKKARRSNHRIQSAGVSPVTSTYCLSPRQKELQKQLERKREKLKREEEQRKLEEENEKKKENEMVFKAWLQKKREQVIEMRRVQRAKQIEDMSSRQVNRDPQQAFRLWLKKKHEEQMKERKTEELRKQEECLFFLRGTEGRERAFRQWLRRKQIEKIAEQQAVKERARQLRLEARRSKQLQSSLYSIPEAKAFRFTDHYN
B1 showed a percent FRET positive cells of 29.4%.
